From patent publication US20230183661A1, “BICOMPATIBLE PEPTIDEBIOCOMPATIBLE PEPTIDES FOR INHIBITION OF AGGREGATION OF B-AMYLOID PROTEIN” (Catholic University Industry Academic Cooperation Foundation, priority 2017, published 2023)
Entries after “also recorded” stand apart in the source; their conditions may differ.

Legend:
nerve cells (N2a) [1] = assay: Cytotoxicity by nuclear morphology through IFA; format: cell-based, mouse; conditions: overexpressed in N2a, FIG. 5
Method: (§1) Twenty-four hours after the transfection, N2a cells were incubated in a 4% paraformaldehyde fixation solution for 15 minutes. The cells were washed with PBS three times, and incubated in a 50 mM NH4Cl/PBS quenching solution for 10 minutes.
(§2) Subsequently, the cells were washed with PBS three times, and incubated in a 0.1% Triton X-100/PBS solution for 5 minutes. The cells were then treated and incubated with 2% FBS/blocking buffer at room temperature for 1 hour. The cells were then treated and incubated with FLAG antibodies diluted 1/100 at room temperature for 2 hours, washed with PBS three times, and then treated and incubated with a goat anti-mouse Alexa Fluor®-red 594 dye.
(§3) The sample was washed with PBS three times, and mounted on a glass slide using a FluoroGuard Antifade reagent (Bio-Rad Laboratories, Inc.). A fluorescent image was obtained using a confocal laser scanning microscope (Zeiss LSM 510 Meta, Carl Zeiss AG), and processed using Adobe® Photoshop®, and a fluorescence signal intensity was measured using a ZEN 2009 Light Edition software program.
To confirm cytotoxicity of the peptide (NABi) of the present invention, the peptide of the present invention was overexpressed in nerve cells (N2a), and a nuclear morphology was observed through IFA. […]

Aβ [2] = target: T1, Aβ (Homo sapiens, UniProt P05067); assay: Co-IP assay of SOD1 truncated peptides co-overexpressed with Aβ in nerve cells (N2a); format: binding; set-up: Aβ, and generally a peptide consisting of 36 to 43 amino acids; expressed in transfected cells; host or cells: N2a (murine neuroblastoma); conditions: for Acting with β-amyloid / Binding strength with β-amyloid: Co-IP; for Acting with β-amyloid: peptide and Aβ overexpressed in N2a; for Binding strength with β-amyloid: relative score without scale; for Binding to Aβ: FIG. 3, Co-IP; for Binding strength to Aβ: FIG. 3
Method: The transfected HEK293T, H4 and N2a cells were lysed in a NETN buffer and incubated on ice for 1 hour. This solution includes 100 mM of NaCl, 1 mM of EDTA, 20 mM of Tris-HCl (pH 8.0), 0.5% (v/v) NP-40 and protease inhibitors. Among the protease inhibitors, aprotinin and leupeptin have a concentration of 2 μg/ml, and PMSF has a concentration of 0.1 mM.
1 mg of a protein extract and 1 μg of a primary antibody were mixed and cultured at 4° C. for 12 hours. The mixture was mixed with Protein G Sepharose 4 Fast Flow (GE Healthcare), and cultured at 4° C. for 1 hour, yielding a binding immune complex through centrifugation. A sample buffer was added to the precipitated Sepharose and boiled, and the buffer includes 44 mM Tris-HCl (pH 6.8), 2% SDS, 144 mM β-mercaptoethanol, 10% (v/v) glycerol, and 0.004% (v/v) bromophenol blue.
The immunoprecipitated sample was subjected to 12% SDS-polyacrylamide gel electrophoresis (SDS-PAGE) to transfer proteins to a membrane, and then immunoblotting with a FLAG antibody, a SOD1 antibody and a GFP antibody.
To identify a β-strand exposed at a protein surface and inhibiting Aβ protein aggregate formation through interactions with Aβ, all types of truncated fragments of SOD1 consisting of eight β-strands (β1 to β8) were systemically designed and constructed (FIG. 2). FIG. 2 schematically illustrates SOD1 and the β1-to-β8 structure of SOD1, and the sequences of Peptides 1 to 6.
To determine a determinant binding to Aβ, various peptides from which a specific β-strand was removed were constructed. Peptide 2 was prepared by removing a β-turn linked to the β2 strand in Peptide 1. Peptides 1 to 6 and Aβ were overexpressed in nerve cells (N2a), and then a Co-IP assay was performed.

nerve cells (H4 cells) [3] = assay: Neural cell death-associated proteins through IB at different peptide expression levels; format: cell-based; conditions: peptide and Aβ expressed in H4 cells, FIG. 13 lanes 6 to 8
Method: (§4) Cells were lysed in an RIPA buffer and incubated at 4° C. for 30 minutes. The RIPA buffer includes 2 μg/mL of a composition including 0.15 M NaCl, 0.5% (v/v) sodium-deoxycholate, 0.1% (v/v) SDS, 0.05 M Tris-HCl (pH 8.0), 1% (v/v) NP-40, aprotinin and leupeptin, 1 mM PMSF and a phosphatase inhibitor.
(§5) The phosphatase inhibitor included 1 mM Na3VO4 and 1 mM NaF. A protein concentration was measured by a Bradford assay (Bio-Rad Laboratories). The sample was separated in a 12% or 15% SDS-polyacrylamide gel.
(§6) The cells were lysed in a lysis buffer (Catalog No. 9803, Cell Signaling Technology), and the sample was separated in a 13% blue gel according to the manufacturer's protocol (MitoSciences Inc.).
(§7) Proteins were transferred to Protran® nitrocellulose membranes (Sigma-Aldrich Co. LLC), and then the membranes were incubated in a 5% non-fat dried milk/TBST solution at room temperature for 1 hour. […]
(§8) The membranes were incubated with a primary antibody at room temperature for 1 hour, and incubated again with a secondary antibody for 1 hour. The antigen-antibody complex was detected using an enhanced chemiluminescence kit (Santa Cruz Biotechnology, Inc.). […]
For the control, after Aβ was expressed in nerve cells (H4 cells), the expression and activity of a neural cell death-associated protein were measured through IB.

Aβ [4] = target: T1, Aβ; assay: FRAP assay of Aβ mobility in nerve cells (N2a); format: cell-based; set-up: Aβ, and generally a peptide consisting of 36 to 43 amino acids; expressed in transfected cells; host or cells: N2a (murine neuroblastoma); conditions: FIG. 9
Method: Fluorescence recovery after photobleaching (FRAP) is a technique for detecting the mobility of a fluorescence-tagged molecule in living cells. N2a cells were cultured in a 35 mm cell culture dish at a density of 5×10^4 cells/dish, and after 12 hours, a target plasmid was transfected into the cells.
Thirty six hours after the transfection, whether an aggregate was formed was analyzed by a laser confocal microscope. A specific area (white box part) was photobleached 15 times using 594 nm laser, and then fluorescence recovery in the photobleached part was measured at an interval of 3 seconds.
To confirm the inhibition of Aβ aggregation by the peptide (NABi) of the present invention, the peptide of the present invention and Aβ were overexpressed in nerve cells (N2a), a predetermined region was repeatedly exposed to a high intensity laser beam through a FRAP assay. Afterward, an Aβ protein was removed from the laser beam-exposed region, and then fluorescence recovery according to migration of peripheral Aβ proteins was measured in real time.
For the control, after Aβ was overexpressed in nerve cells (N2a), fluorescence recovery according to migration of peripheral Aβ proteins was measured in real time through a FRAP assay.

nerve cells (N2a) [5] = assay: Cytotoxicity through IB of neural cell death-associated proteins; format: cell-based, mouse; conditions: peptide overexpressed in N2a, FIG. 6
Method: as §4, §5, §6, §7, §8
For the control, normal nerve cells (N2a) were treated with STS to induce apoptotic cell death (apoptosis positive control), and then the expression and activity of a neural cell death-associated protein were evaluated.

nerve cells (H4 cells) [6] = assay: Neural cell death through AnnexinV staining at different peptide expression levels; format: cell-based; conditions: all expression levels of the peptide, H4 cells with Aβ, FIG. 12
Source text: An expression level of the peptide of the present invention was differentially adjusted.

nerve cells (H4 cells) [7] = assay: Neural cell death through PI staining; format: cell-based; conditions: peptide and Aβ overexpressed in H4 cells, FIG. 10
Source text: Approximately 40 to 50% of the H4 cells were positive for a neuron marker (neuron-specific enolase; NSE). Since the H4 cells were sensitive to an Aβ aggregate, and neural cell death resulted from the Aβ aggregate, they were used in neural cell death analysis.
For the control, Aβ was overexpressed in nerve cells (H4 cells).

Aβ protein aggregate = target: T2, Aβ protein aggregate (Homo sapiens, UniProt P05067); assay: Aβ aggregation inhibition in nerve cells through IFA; format: cell-based; conditions: peptide and Aβ expressed, FIG. 7; Aβ-only control about 50% cells with aggregates
T2 construct: Aβ, and generally a peptide consisting of 36 to 43 amino acids; expressed in transfected cells; host or cells: N2a (murine neuroblastoma)
Method: as §1, §2, §3
To confirm the inhibition of Aβ aggregation by the peptide (NABi) of the present invention, the peptide of the present invention and Aβ were expressed in nerve cells, and then an Aβ protein aggregate was quantitatively analyzed through IFA. […]

nerve cells (N2a) [8] = assay: Self-aggregate formation of peptide overexpressed in nerve cells (N2a), immunofluorescence; format: cell-based, mouse
Method: as §1, §2, §3
To identify whether a self-aggregate of the peptide (NABi) of the present invention was formed, the peptide of the present invention was overexpressed in nerve cells (N2a), and then measured by an immunofluorescence method.

nerve cells (H4 cells) [9] = assay: Neural cell death through nuclear morphology; format: cell-based; conditions: peptide and Aβ overexpressed in H4 cells, versus Aβ-only control, FIG. 11
Source text: For the control, Aβ was overexpressed in the nerve cells (H4 cells).

Aβ [10] = target: T1, Aβ; assay: Aβ aggregate formation under aggregate formation conditions, measured through IB; format: biochemical; conditions: FIG. 8
Method: 9. Formation of β-Amyloid Aggregate A monomer recombinant Aβ42 (Catalog No. 03-111, Invitrogen™ Co.) peptide was added to 1,1,1,3,3,3-hexafluoro-2-propanol (HFIP, Sigma-Aldrich Co. LLC) and stored in a −80° C. freezer, and the HFIP was evaporated and removed immediately before use. For the Aβ aggregate formation, 20 μM of Aβ peptides were dissolved in a 0.1 M HEPES/TBS buffer or 0.01 M HCl/TBS buffer and incubated at 37° C. for 14 days. The TBS buffer included 50 mM Tris-HCl and 150 mM NaCl.
To confirm the inhibition of Aβ aggregation by the peptide (NABi) of the present invention, the peptide (NABi) of the present invention and Aβ were cultured under i) a 0.1 M HEPES/TBS (pH 7.4) condition or ii) a 0.01 M HCl/TBS condition, and then the degree of Aβ aggregate formation was measured through IB.
Under an Aβ aggregate formation condition, for example, i) a 0.1 M HEPES/TBS (pH 7.4) condition or ii) a 0.01 M HCl/TBS condition, the control was subjected to IB in order to measure a degree of Aβ aggregate formation.

Question: With “G93A: SOD1 mutant in which the 93th amino acid glycine was changed to alanine; aggregation and apoptosis comparator [Peptide G93A, reference compound]” as the substance, how does the “Cells with condensed and fragmented nuclei” value (nerve cells (N2a) [1]) read?
Answer: approximately 50%

Question: “Peptide 3: truncated fragment of SOD1 consisting of β-strands β4 to β6, 75 aa” was tested. Which “Acting with β-amyloid” value (Aβ [2]) did it give?
Answer: Not acting

Question: What about the “Binding strength with β-amyloid” value (Aβ [2]) of the same substance?
Answer: 0

Question: What about the “Binding to Aβ” value (Aβ [2]) of the same substance?
Answer: did not bind to Aβ

Question: Which results are given for “Peptide 4: truncated fragment of SOD1, β1-to-β3 sequence, 39 aa (SEQ ID NO: 2) (ATKAVCVLKGDGPVQGIINFEQKESNGPVKVWGSIKGLT; peptide 2)”?
Answer: Binding strength with β-amyloid (Aβ [2]): 1; Binding strength to Aβ (Aβ [2]): bound to Aβ at a similar strength

Question: With “Peptide 5: Natural Amyloid β Binder and Amyloid β aggregation inhibitor; β1-to-β5 strand sequence of SOD1, 90 aa (SEQ ID NO: 3 or 4)” as the substance, how does the “Detection of truncated caspase-3, truncated PARP and truncated Lamin A/C” value (nerve cells (H4 cells) [3]) read?
Answer: greatly reduced

Question: What about the Nuclear morphology (nerve cells (N2a) [1]; compared with normal N2a control) of the same substance?
Answer: normal nuclear morphology

Question: And the “Recovery of fluorescence removed by photobleaching” value (Aβ [4]; within 20 seconds)?
Answer: 50%

Question: What about the “Recovery of fluorescence removed by photobleaching” value (Aβ [4]; within 90 seconds) of the same substance?
Answer: 75%

Question: And the “Truncated forms of PARP1, Lamin A/C” value (nerve cells (N2a) [5])?
Answer: not detected either

Question: And the “Active caspase-3, active caspase-8, active caspase-9 and γ-H2AX” value (nerve cells (N2a) [5]; STS as apoptosis positive control)?
Answer: not detected

Question: What about the “Neural cell death by AnnexinV staining” value (nerve cells (H4 cells) [6]) of the same substance?
Answer: neural cell death was inhibited

Question: What about the “Reduction of the number of PI-stained apoptotic cells compared to the control” value (nerve cells (H4 cells) [7]) of the same substance?
Answer: approximately ⅓

Question: And the “Nerve cells in which no Aβ protein aggregate was observed” value (Aβ protein aggregate)?
Answer: ≥ 80%

Question: What about the “Self-aggregate formation” value (nerve cells (N2a) [8]) of the same substance?
Answer: did not form a self-aggregate

Question: What about the “Morphological changes in nuclei (chromosomal condensation and fragmentation)” value (nerve cells (H4 cells) [9]) of the same substance?
Answer: less morphological changes in nuclei

Question: And the “Reduction of Aβ aggregates compared to the control” value (Aβ [10]; i) 0.1 M HEPES/TBS (pH 7.4))?
Answer: 1/10

Question: And the “Reduction of Aβ aggregates compared to the control” value (Aβ [10]; ii) 0.01 M HCl/TBS)?
Answer: ⅓

Question: What about the “Binding strength with β-amyloid” value (Aβ [2]) of the same substance?
Answer: 1

Question: And the “Binding strength to Aβ” value (Aβ [2])?
Answer: bound to Aβ at a similar strength; also recorded: strongly bound to Aβ

Question: And the “Binding to Aβ” value (Aβ [2])?
Answer: bound to Aβ

Question: For “Peptide 6: truncated fragment of SOD1 consisting of β-strands β5 to β8, 74 aa”, which “Acting with β-amyloid” value (Aβ [2]) is on record?
Answer: Not acting

Question: And the “Binding strength with β-amyloid” value (Aβ [2])?
Answer: 0

Question: And the “Binding to Aβ” value (Aβ [2])?
Answer: did not bind to Aβ
